Molecular target: Apolipoprotein E receptor-2 (Apoer2) (human) (UniProt Q14114)
Assay: cell-based or functional assay

Sequence of UniProt Q14114 (Q14114 33-963): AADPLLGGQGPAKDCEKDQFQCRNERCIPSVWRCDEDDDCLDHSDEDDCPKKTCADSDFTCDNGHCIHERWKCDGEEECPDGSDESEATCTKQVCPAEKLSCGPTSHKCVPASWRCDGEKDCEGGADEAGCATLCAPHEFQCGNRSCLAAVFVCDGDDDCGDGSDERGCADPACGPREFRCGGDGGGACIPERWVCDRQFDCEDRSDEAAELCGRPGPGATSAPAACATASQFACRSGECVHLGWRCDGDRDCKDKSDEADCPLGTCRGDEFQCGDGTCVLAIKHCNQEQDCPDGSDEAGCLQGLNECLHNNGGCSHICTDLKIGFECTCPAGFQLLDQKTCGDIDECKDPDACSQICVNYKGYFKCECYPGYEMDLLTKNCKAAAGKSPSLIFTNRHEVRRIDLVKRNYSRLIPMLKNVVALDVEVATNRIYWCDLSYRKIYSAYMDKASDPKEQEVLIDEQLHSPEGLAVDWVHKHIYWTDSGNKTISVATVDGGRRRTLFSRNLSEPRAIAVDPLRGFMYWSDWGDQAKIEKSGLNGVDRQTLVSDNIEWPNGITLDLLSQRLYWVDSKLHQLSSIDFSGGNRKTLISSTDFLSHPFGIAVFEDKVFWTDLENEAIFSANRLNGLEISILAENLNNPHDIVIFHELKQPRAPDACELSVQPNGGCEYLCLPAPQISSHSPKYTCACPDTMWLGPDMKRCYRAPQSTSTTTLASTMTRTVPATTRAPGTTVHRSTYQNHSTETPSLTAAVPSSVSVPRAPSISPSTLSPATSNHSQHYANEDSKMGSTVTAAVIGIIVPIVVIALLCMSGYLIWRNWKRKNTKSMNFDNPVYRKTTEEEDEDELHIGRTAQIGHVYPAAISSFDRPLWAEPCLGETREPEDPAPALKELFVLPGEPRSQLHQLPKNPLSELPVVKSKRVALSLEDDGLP

Recombinant Reelin (ligand)
U937 monocyte adhesion to HAEC monolayers: > 2 fold

— patent US20230123187A1
